Measurements published in paper PMC8242512.

Target: soluble trimeric SARS-CoV-2 S glycoprotein, 2P-stabilized, lacking the furin cleavage site (SARS-CoV-2) (UniProt P0DTC2)
Experiment: SPR; S protein captured on a Ni2+-loaded NTA chip; ACE2 as analyte, serial dilutions 200 nM to 3.125 nM in triplicate, 50 ul/min, HBS P+ buffer, association 300 s, dissociation 600 s; 1:1 binding model (Biacore Evaluation Software)

Sequence of truncated soluble angiotensin-converting enzyme 2 (hACE2) (Q9BYF1 18-626): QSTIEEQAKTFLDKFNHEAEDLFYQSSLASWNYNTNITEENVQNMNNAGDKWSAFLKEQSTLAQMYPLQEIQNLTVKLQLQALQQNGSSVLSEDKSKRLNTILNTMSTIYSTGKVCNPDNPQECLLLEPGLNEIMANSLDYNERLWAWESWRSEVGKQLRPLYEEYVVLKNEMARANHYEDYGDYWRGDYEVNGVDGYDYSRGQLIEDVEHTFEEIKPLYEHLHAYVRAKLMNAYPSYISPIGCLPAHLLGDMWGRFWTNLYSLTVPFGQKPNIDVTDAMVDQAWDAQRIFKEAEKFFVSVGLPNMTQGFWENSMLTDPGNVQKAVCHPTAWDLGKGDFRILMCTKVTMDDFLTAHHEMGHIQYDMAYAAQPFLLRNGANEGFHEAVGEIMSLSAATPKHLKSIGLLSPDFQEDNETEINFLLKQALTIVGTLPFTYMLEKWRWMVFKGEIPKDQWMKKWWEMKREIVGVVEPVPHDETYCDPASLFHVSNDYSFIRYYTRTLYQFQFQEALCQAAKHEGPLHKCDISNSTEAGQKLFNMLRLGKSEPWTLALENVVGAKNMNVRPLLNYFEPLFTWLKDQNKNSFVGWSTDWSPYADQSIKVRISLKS

Work on “truncated soluble angiotensin-converting enzyme 2 (hACE2) (from UniProt Q9BYF1 18-626) (receptor)” yielded a Kd of 84 nM.
